This is an account of results in IntAct's records for PubMed 22164283.

Homeobox protein MIXL1 (Mus musculus), Q9WUI0 R143I, sequence (Q9WUI0 whole entry R143I): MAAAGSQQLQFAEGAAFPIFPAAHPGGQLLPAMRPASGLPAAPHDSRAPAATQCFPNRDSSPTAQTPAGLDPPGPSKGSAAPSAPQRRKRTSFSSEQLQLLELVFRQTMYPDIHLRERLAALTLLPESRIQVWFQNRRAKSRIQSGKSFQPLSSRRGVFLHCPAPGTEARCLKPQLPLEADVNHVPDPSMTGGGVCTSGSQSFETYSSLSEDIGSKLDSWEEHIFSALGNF
Homeobox protein MIXL1 (Mus musculus), Q9WUI0 I113R, sequence (Q9WUI0 whole entry I113R): as the sequence (Q9WUI0 whole entry R143I) above, with I113R, I143R counted along it
Homeobox protein MIXL1 (Mus musculus), Q9WUI0 P126I, sequence (Q9WUI0 whole entry P126I): as the sequence (Q9WUI0 whole entry R143I) above, with P126I, I143R counted along it
Homeobox protein MIXL1 (Mus musculus), Q9WUI0 V132A, sequence (Q9WUI0 whole entry V132A): as the sequence (Q9WUI0 whole entry R143I) above, with V132A, I143R counted along it

For the experiment, the target named is tbxt_mouse Tbxt (UniProt P20293).
tbxt_mouse Tbxt, sequence (P20293 whole entry): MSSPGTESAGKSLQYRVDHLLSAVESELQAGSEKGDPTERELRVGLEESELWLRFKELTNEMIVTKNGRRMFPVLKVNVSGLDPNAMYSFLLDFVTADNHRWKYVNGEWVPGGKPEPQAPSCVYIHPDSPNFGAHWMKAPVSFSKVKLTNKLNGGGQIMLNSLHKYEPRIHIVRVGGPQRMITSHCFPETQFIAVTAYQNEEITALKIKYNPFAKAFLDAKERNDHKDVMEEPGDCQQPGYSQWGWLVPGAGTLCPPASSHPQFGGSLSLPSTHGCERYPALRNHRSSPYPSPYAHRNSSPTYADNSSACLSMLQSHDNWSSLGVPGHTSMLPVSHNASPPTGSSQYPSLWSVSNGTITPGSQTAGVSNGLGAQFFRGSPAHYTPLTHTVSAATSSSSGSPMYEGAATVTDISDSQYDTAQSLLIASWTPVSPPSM
As to “Homeobox protein MIXL1 (Mus musculus), Q9WUI0 I113R”, the “effect of a mutation on the interaction” value is recorded as “with no effect”.
For the substance “Homeobox protein MIXL1 (Mus musculus), Q9WUI0 V132A”, the “effect of a mutation on the interaction” value is “with no effect”.
In the case of “Homeobox protein MIXL1 (Mus musculus), Q9WUI0 P126I”, the “effect of a mutation on the interaction” value is “decreasing interaction strength”.
As for “Homeobox protein MIXL1 (Mus musculus), Q9WUI0 R143I”, the “effect of a mutation on the interaction” value is “with no effect”.
